Experimental findings from the domain aggregation screens of Martell et al. (2025) are described below.

This data set in a line: soluble fraction after stress (log2 fold change); higher = more stays soluble; pooled small domains, quantitative proteomics. Particulars: stress: 75 degC.
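Further: 20 min heating vs room temperature control held 20 min.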

Regarding “HMPTTLEGIEKYLSSGLIKGIGPHLAGKLVEAFGTRVFEVVEHQPERLRTVGGIGRTRAESITSAWRDQ”, the “soluble fraction (log2)” value was -0.146. For “HMPTTNIRAFRLREADPESVKEALSMVMPKTSIYVDARTKSVLVVGLLDELARAAEIVALIDQP” the value was -2.8; for “HMPVFSAEQVAKAEADVQKVANKVQEAGADVEKLTTIHNWLLAREKYMPPDLFSTANQIIATAFQKAG”, 0.525; for “HMPVGSIGERLKALRLKAGLTQEEVGQHVHISKQTLYKYENGIVTNIPADKIELLATIYSVTPAYIMGWA”, -2.27. For “HMPVQPMDPSIEHISALTGKQFQAFPGQDHRAHMTAHLNFMSTNIVRNNPAVMGAIQKNILEHISLMAQEQ” the value was 0.322; for “HMPVSLHEQIQQARIRAEQNVEGISLLLQVNPKYYEQIEAGDVIPDQDLLKRISSLFGWNYHEMLHREKSS”, -0.781; for “HMPVSTLLGDNLRRLRTAKGYTQEAVADAARISVAAYRNYETGRAIPKVNTLLAIARALGVSLNDLVTE”, -0.605. With “HMPVTAQFDFSKVLAGRTLKDGEFSFVLKDKNGTVLQTKTNDASGKVAFDALIYKNNEVGEHKYTVEEVI” the figure was 0.237; with “HMPVVKIPFILTEGPSSITKVIEIDADEILELKDVFQEDDKLWSINQIEMNDGRYVKHSDASLIVRASALR”, 0.233; with “HMPYHSEAWHKVMKSHWLTLSREEAYMHEGRTGASTINIVFQRELGREATQEEIESIYQEKSVLFNSYP”, -1.52.

“HMPYLVNGFILEVQSDDNNPVGTLKRRYAVAKNKQGVILLEGEKSFSSNDQILINELKFYIQSNDLKA”: the “soluble fraction (log2)” value was -2.56. With “HMPYSKIALQISHLLKSHGVPLSNKQIYEKLINDFQLSINYSNLTNNILPRMNSDSSINVEKVTRGYWQY” the figure was -0.931. With “HMQADKYKSYTATDFLKDKDFLRWQLFNGEEDMLFWGRVIEEYPALRSRVEEGIVLYKDNIR” the figure was -0.711. With “HMQADTATITGNGVNMRSGPGTNYQIIDTIPKGTVAEVLSQQDGWVKIYSARISGWVSASYVEIKQT” the figure was -2.5; with “HMQAGNAVEQYPTIGRLEEVTLGRSQPGAPIGERLSTLETVVFKRNFNDDSLFDRTERLKKTILGG”, -0.104; with “HMQAKQVAIPDVANYSVTDAIKKLQDAGFIVSDEQREEANETVSEGKVSRTSPAAGSIRKEGTEIILYKSL”, 0.361. In the case of “HMQALDETTVSRIRQKAAARNLLLKVLAGQLGVARPTLSNVLARREAPSAALAARIRAFLDSP”, the “soluble fraction (log2)” value was -1.45. For “HMQALTLVGQDAKDAKAALDAVDIQPAKTETDRYIYVLTEQQAQELGRTVDALYGVEGSLTLILEV”, the “soluble fraction (log2)” value was 0.253. For “HMQAQQYYMLLMNKATSALKIEALGANSNKAHQSFGTKTAGGSAVYWGILFNSNGKIYKIVG” the value was -3.06.

On to “HMQASIPQSQKDALAKELQALPPHGRNRVLSTFRQQFNISSEKISEFITTPEHLSFIRSKIAEVESDS”, for which the “soluble fraction (log2)” value was 0.267. As to “HMQDENAVTYLLEIKNADANDIASVLKTLKSPDADVVVYKTLNMIIFTGQGSEINGLVKVARQLDRK”, the “soluble fraction (log2)” value was -2.04. For “HMQDGVNLENIEQKLSTLGVGKAQYFLQNVGGNKFNAYMALNTDGVEGYQKGSDTLIEIKNVE” the value was 0.215; for “HMQDKIWVVDETQLYPKLIEAMSEGKAVIHDGVAYWAEGSGKTGVIQHLPFKETTVQNVEEAIKLAQ”, 0.0953.

“HMQDKLLRKKEVLEMVSITNSTMYRMIGSGQFPRPIRLDNANINSGVRWKLSEINTFIEQRF”: the “soluble fraction (log2)” value was -0.513. With “HMQDLAKRWVEEFGDLLYKYTLPRVSDSGIAKDLVQETFLAAWRNIDNFKGEASEKNWLFTILKNKIIDH” the figure was -0.382; with “HMQDLTAQQQAILSFLKEHPKATRKEISENIPNITEDNIRYNLSQLQELGFVKSMGDSFIRIAI”, 0.534; with “HMQDNDLKNQIENVLRTYPDNVFTVEKIADVLRSHGSAAFKLIVQELASLERDKVAVVTEDGKFQLNPD”, 0.261. With “HMQDPTAVISRVLEERKHQPGALLPILHGIQDALGYVPREAVAQIAQALNLSRAEIHGVVSFYHHFR” the figure was -0.59.

“HMQDPVWVDWLGENDWFQKDPKRRGLANGYSEILRAEQPELVGRPFLDEVTRRVQADFPELFG”: the “soluble fraction (log2)” value was -0.944. Take “HMQDTRSHARKMLAAIEALLEGRSGSDIQAYTIHNRSITKMTVPELVKWRSYYQQQVRSEDAAASLA”: the “soluble fraction (log2)” value was -0.61.

Regarding “HMQDTYLYPVQHNGKVRLQVELPAKGLPEDLVRLALAHPKVVEWLNGRIPTKTIAVPGRIINMVLPNQ”, the “soluble fraction (log2)” value is -0.638.

For the sequence “HMQDVWEPFLAKGYVFADGMLTKLIHKRGDVYKTQEIGSDKIIYVIKDGDTFAHGKTVKAAMLDLAFKKS”, the “soluble fraction (log2)” value is -1.5. For “HMQDYISAEEAKSAALSASQVDSAGAAFSAAELGEKNGIPYYEVAFTADGLEYRYAIDAQTGTVIESSSSG” the value was 0.156. On to HMQEDKVRKLTEMGFAEDQAREALRKHDWDETMALNSL, for which the “soluble fraction (log2)” value stood at 0.262. With “HMQEDSNISFVKIHVDADSGMAHKKLSKLSLPTGFLIVVIIRGEENIIPNGETEVLPGDLLVAAAREFEN” the figure was -1.31.

Consider “HMQEEELYPRLEEVINQHRGKGEDLIMVLHKAQNLFGYLPRRAQEMVAEGLNVSLNEVYGVITFYNFFST”, for which the “soluble fraction (log2)” value turned out to be 0.194. For “HMQEERDISFIKIHLEPGHPWRGRALRELMPLKDLLIVMVVRGEDTIVPNGDTRLEEGDLLVLAAYPFEE” the value was -0.834; for “HMQEHAHLWRLMEDNRSFKADYIAFENGIVLLQNLSSGKISQYPITDFSIEDQLLILKRHELTAHINAN”, -3.3.

Turning to “HMQEIKPEPISDGRVWKEGMWATTPLGIEGQLLSDPDEKGMVQLGYGNMRININIQDLDPSR”, the “soluble fraction (log2)” value is -0.104. For “HMQEISQEEALATVLKDLSLTEADLKDLQITREEDKYKILFSKGQTAYDVLVSAKDGQLLQSKQETI”, the “soluble fraction (log2)” value is -0.313. “HMQEKQIIDGREFYIHQVERGITLYSIAKQYNVKVADIQAENPFLEAGLQPGQTLKIPLDKVETVQEIK”: the “soluble fraction (log2)” value was -0.218. As to “HMQEPIAVPDFINKSAVDVLVNPVFTQNFKLVSEDVYDDKVPEGYIVGQSVKSDTLVQPGTEIVIYV”, the “soluble fraction (log2)” value is 0.224. Regarding “HMQEPNYQPLMQNIKSQDLEEVTRLLSLNDVKFKIDHRTGLLLVESSRVYEAKMKLAATGITD”, the “soluble fraction (log2)” value was -1.07.

As to “HMQEPVHFTRRERQVLSLILSGQATAEIAKTLGIANATVTTYKKSLYSKSGTNSLSRLLIWAMVRR”, the “soluble fraction (log2)” value is -0.463. With “HMQEPVYRPVFPGMTDADRQSAMEALKEGGFSPRLNRQTGQLEVDASGYHEAKIYLASQGIPAE” the figure was 0.0608. Turning to “HMQERNYIVRRGDTLWDLAKTYYGSGTKYTVIYDANRDNIEAEAKRRGKQSSNGGYWIYPGTELTI”, the “soluble fraction (log2)” value was -0.348. For “HMQERTVVKGVVVQVSRDEAYVDIGYKQEIPVSKRDLAVPAPDDARDVVKVGDEIDVYIKSLGGDNGG” the value was 0.109; for “HMQESTPGEGYKWREDVLLRVMSQNGIDESLRDEFVRHAVNYDIDDNMYLKKAEIESAAEAWVLENS”, 0.172; for “HMQESVTVSAQALRRLLEKGDGDAALLYLALLRHHGTIQPRALAGELRWERPRIEAAEEALRQMGLIA”, -0.48. With “HMQETMTNDEVISLTKAGLSSSIIIGKIRSSATNFDLSTDSLIKLKQAGVSDETVAAMLEAKS” the figure was 0.0249; with “HMQGAARGMLFAQAQRWMTKFRIDPQQADRITQAALDPAQTDAILREVRRGYGPSAERALRGIIRRARRA”, -1.94.

With “HMQGEAMQETVKKLDAFLQDNSVSMSALARALGVSPSLISQFRSGSYKGDSQAIAAKINSYIDNHNKKSK”, the “soluble fraction (log2)” value is -0.0127. In the case of “HMQGEKDDLWREVLDNPDAWWDNRERKNAPGGNPRYPDFKHKDSQTPLWIESRDTPQWAIDALL”, the “soluble fraction (log2)” value is 0.259. For “HMQGNGKVATELLKDIIASDNLYINAMRMLVMHYNSKGTNQVEMVKLLHNILDLVPDDEYANEILKSAKKA” the value was -0.0872; for “HMQGPDPYAVLGIDRHADERAIKRAYRKLISEHHPDRLGDLPEDMRKRAESRASEINAAYDRIKEARGF”, 0.0522; for “HMQGQVLQETARKARSQLDSEIPGFNDALYQNLIKSSENYGYKAEEVAQWVDPRAIKVLNDAYQFQQLKAG”, -0.172. With “HMQGTTTELLIQKSALYEELNDPEKALNAMFDAFEMDSLNVNVLHRIVSLLLDKEENEKAILYNQLIIDH” the figure was 0.0862; with “HMQHQSGLKSGEFEAISQQLQALLKENPLSLQEIKDKMQVTENHLIKVVSYLVSEEIIRQENGYLK”, -0.976.

On to “HMQIAGLDDIDNRIIDLLLKNGRASYSEIGAAVGLSRTAAKNRIRALEASGIIRGYQAILDPQA”, for which the “soluble fraction (log2)” value was -0.708.

Turning to “HMQIDDSVELSAIVEKLLAANPEQVEQLKNGKTKVLGYFVGLAMKETQGRANPQKVNELIQTHL”, the “soluble fraction (log2)” value is -0.519. For “HMQIDRLFDIVYTLLRKKSATAAELAERFGVSKRTILRDIETLSVAGIPILTSPGKGGGVSISSSF” the value was -0.892; for “HMQIIETTVGRVLFNEKVPEAAGYINEVLTKKSLRDIIHGILKKTSVPETAAFLDEIKSLGYNFAF”, 0.0925. For the sequence “HMQIIEVPYSEFLKKLESGQISEVSRDSYQIVFTDRSQPPIIYKTGLMEDPGLVDKMQEAGVTFTSP”, the “soluble fraction (log2)” value is 0.256. For “HMQIKNVDYGTFLDMLDEKNVKEVEIEDEQIVFTDNADPTGYYTTGRMEDPDLVDRLHNSGATFSAI” the value was 0.134. For “HMQILLASHAELAKGILSAVELIAGTQQNLKAYSAYTEAVDVHFKDQMLQDLNKMDPEDEVIL” the value was 0.137. For “HMQINLSEWVLAAREYAGPEMTQEKLAEHLGRTKANVSAMENGRSKPSFEQMMEIHRVTGYPLPYQ” the value was -0.303; for “HMQISDAGALLDAVRRVLAENPAQVEQFRAGKEKVMGFLVGQVMRATGGKANPQMLNDVLREELS”, -0.196; for “HMQISDEGELSGIVRKIIDANPQSVADYKAGKKKAIGFLVGQIMIETKGRANPASVNELLIKKLE”, -0.434. With “HMQISDNTILEDAVSRIIDENPKSVSDYFQGKEAVVGFFIGQIMRETKGTANPKIAREIVISHLEAI”, the “soluble fraction (log2)” value is -0.576. For “HMQISGIHLYERRITKDDEWAERKLSEISLAGSLVILILRNEHVVIPNGETVLKENDLLYISD” the value was -3.66.
